Data on two proteins can be found in paper PMC9259969, “Biophysical Screening Pipeline for Cryo-EM Grid Preparation of Membrane Proteins” (Frontiers in Molecular Biosciences, 2022).

Series [1] deals with the molecule itself. In words: mass photometry; 150 nM TolC in the presence of 0.003% DDM; controls with 0.03% and 0.003% DDM without protein.
For another series, the target named is Q9Y6I3. In words: mass photometry; hENTH at 100 nM in the presence of 200 µM PI(4,5)P2; Refeyn OneMP; control: buffer with 200 µM PI(4,5)P2. As to conditions: other: mass photometry.

B1: TolC (natural protein, Escherichia coli, UniProt P02930 23-493, looked up)
chain: ENLMQVYQQARLSNPELRKSAADRDAAFEKINEARSPLLPQLGLGADYTYSNGYRDANGINSNATSASLQLTQSIFDMSKWRALTLQEKAAGIQDVTYQTDQQTLILNTATAYFNVLNAIDVLSYTQAQKEAIYRQLDQTTQRFNVGLVAITDVQNARAQYDTVLANEVTARNNLDNAVEQLRQITGNYYPELAALNVENFKTDKPQPVNALLKEAEKRNLSLLQARLSQDLAREQIRQAQDGHLPTLDLTASTGISDTSYSGSKTRGAAGTQYDDSNMGQNKVGLSFSLPIYQGGMVNSQVKQAQYNFVGASEQLESAHRSVVQTVRSSFNNINASISSINAYKQAVVSAQSSLDAMEAGYSVGTRTIVDVLDATTTLYNAKQELANARYNYLINQLNIKSALGTLNEQDLLALNNALSKPVSTNPENVAPQTPEQNAIADGYAPDSPAPVVQQTSARTTTSNGHNPFRN
notes: TolC, outer membrane protein of Escherichia coli; molecular weight of 161.7 kDa printed for the trimeric state; The protomer is written here; In DDM micelles in the assays; also called integral membrane protein TolC; source: E. coli C43(DE3)ΔAcrAB, solubilised in DDM, purified (HiTrap HP with imidazole elution, SEC)
For B1, the binding result in series [1] is “binds”.

B2: Recombinant human ENTH domain from epsin-1 (hENTH) (protein)
chain: NIVHNYSEAEIKVREATSNDPWGPSSSLMSEIADLTYNVVAFSEIMSMIWKRLNDHGKNWRHVYKAMTLMEYLIKTGSERVSQQCKENMYAVQTLKDFQYVDRDGKDQGVNVREKAKQLVALLRDEDRLREER
On to B2, for which the “N with PI(4,5)P2” value with Q9Y6I3 was “corresponding to a hexamer of hENTH in the presence of 200 µM PI(4,5)P2”.
